{"source": "patent US20040132121A1", "about": "“Method of identifying antibacterial compounds” (priority 2000, published 2004)", "binders": {"B1": {"name": "peptide 112d … (UmuC1, native flanking sequences) (peptide)", "peptide": "EAQLDLFDS", "modifications": "not checked"}}, "target": "Escherichia coli β subunit of DNA Polymerase III (β protein) (Escherichia coli), P0A988", "sequence (P0A988 whole entry)": "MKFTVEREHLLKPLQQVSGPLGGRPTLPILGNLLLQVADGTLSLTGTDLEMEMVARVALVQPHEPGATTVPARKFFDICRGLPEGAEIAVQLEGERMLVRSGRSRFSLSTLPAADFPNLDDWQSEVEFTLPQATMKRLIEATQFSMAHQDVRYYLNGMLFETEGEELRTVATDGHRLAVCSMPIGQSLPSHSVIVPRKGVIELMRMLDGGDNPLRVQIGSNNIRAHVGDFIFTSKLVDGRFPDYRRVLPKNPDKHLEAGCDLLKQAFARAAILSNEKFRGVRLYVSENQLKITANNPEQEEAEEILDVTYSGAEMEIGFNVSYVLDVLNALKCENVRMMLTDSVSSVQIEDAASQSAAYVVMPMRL", "note": "“And” between values parts separate entries of the source, which are not always exact repeats. Equal values may be shown once.", "data": [{"binder": "B1", "values": [{"measurement": "IC50", "value": "1000 nM and 3600 nM"}]}]}
